Data as given in article PMC12102759 (2025).

B1: TPTE2 peptide 92-107 (Phosphatidylinositol 3,4,5-trisphosphate 3-phosphatase TPTE2), 16-mer library wild type / TLN1 PTB (TLN1 Phosphotyrosine-binding (PTB) domain, residues 309-401) (parent complex)
chain 1: LADLIFTDSKLYIPLE
chain 2: GVSFFLVKEKMKGKNKLVPRLLGITKECVMRVDEKTKEVIQEWNLTNIKRWAASPKSFTLDFGDYQDGYYSVQTTEGEQIAQLIAGYIDIILK

Variants of: B1
Experiment: proteomic peptide phage display deep mutational scan (ProP-PD DMS): M13 P8 16-mer library selected against immobilised GST-tagged bait for four days (rounds), NGS of the eluted pools per day and pseudo-replica; bait immobilised on MaxiSorp plates (10 µg), library pre-cleared on GST, 2 h binding at 4 °C, five washes; one round per day, days 1-4; value from days 2 and 3

Compared with chain 1 D3N, chain 1 D3G is lower in screen value: 0.000465 average fractional NGS count over selection days 2 and 3 (reads of this peptide / all reads for the bait, averaged over … for the first, 0.000214 average fractional NGS count over selection days 2 and 3 (reads of this peptide / all reads for the bait, averaged over … for the second.

Compared with chain 1 D3S, chain 1 I5K is higher in screen value: 0.000257 average fractional NGS count over selection days 2 and 3 (reads of this peptide / all reads for the bait, averaged over … for the first, 0.000454 average fractional NGS count over selection days 2 and 3 (reads of this peptide / all reads for the bait, averaged over … for the second.

Going from chain 1 I5M to chain 1 I5F, the screen value rises from 0.000604 average fractional NGS count over selection days 2 and 3 (reads of this peptide / all reads for the bait, averaged over … to 0.000696 average fractional NGS count over selection days 2 and 3 (reads of this peptide / all reads for the bait, averaged over ….

Going from chain 1 I5H to chain 1 I5V, the screen value rises from 0.000463 average fractional NGS count over selection days 2 and 3 (reads of this peptide / all reads for the bait, averaged over … to 0.000758 average fractional NGS count over selection days 2 and 3 (reads of this peptide / all reads for the bait, averaged over ….

First: chain 1 I5W
Second: chain 1 I5D
The screen value of the first is lower: 0.00126 average fractional NGS count over selection days 2 and 3 (reads of this peptide / all reads for the bait, averaged over … for the first, 0.0016 average fractional NGS count over selection days 2 and 3 (reads of this peptide / all reads for the bait, averaged over … for the second.

First: chain 1 I5Q
Second: chain 1 I5Y
The screen value of the first is lower: 0.000996 average fractional NGS count over selection days 2 and 3 (reads of this peptide / all reads for the bait, averaged over … for the first, 0.00125 average fractional NGS count over selection days 2 and 3 (reads of this peptide / all reads for the bait, averaged over … for the second.

Compared with chain 1 I5E, chain 1 I5P is lower in screen value: 0.000204 average fractional NGS count over selection days 2 and 3 (reads of this peptide / all reads for the bait, averaged over … for the first, 0.000122 average fractional NGS count over selection days 2 and 3 (reads of this peptide / all reads for the bait, averaged over … for the second.

Compared with chain 1 I5G, chain 1 I5R is higher in screen value: 0.000313 average fractional NGS count over selection days 2 and 3 (reads of this peptide / all reads for the bait, averaged over … for the first, 0.0019 average fractional NGS count over selection days 2 and 3 (reads of this peptide / all reads for the bait, averaged over … for the second.

Going from chain 1 K10M to chain 1 K10G, the screen value falls from 0.0107 average fractional NGS count over selection days 2 and 3 (reads of this peptide / all reads for the bait, averaged over … to 0.000514 average fractional NGS count over selection days 2 and 3 (reads of this peptide / all reads for the bait, averaged over ….

Compared with chain 1 K10N, chain 1 K10L is lower in screen value: 0.000537 average fractional NGS count over selection days 2 and 3 (reads of this peptide / all reads for the bait, averaged over … for the first, 0.000166 average fractional NGS count over selection days 2 and 3 (reads of this peptide / all reads for the bait, averaged over … for the second.

Going from chain 1 K10R to chain 1 K10Y, the screen value falls from 0.00219 average fractional NGS count over selection days 2 and 3 (reads of this peptide / all reads for the bait, averaged over … to 0.00128 average fractional NGS count over selection days 2 and 3 (reads of this peptide / all reads for the bait, averaged over ….

Going from chain 1 K10Q to chain 1 K10I, the screen value falls from 0.00103 average fractional NGS count over selection days 2 and 3 (reads of this peptide / all reads for the bait, averaged over … to 0.000133 average fractional NGS count over selection days 2 and 3 (reads of this peptide / all reads for the bait, averaged over ….

First: chain 1 K10A
Second: chain 1 K10H
The screen value of the first is higher: 0.0017 average fractional NGS count over selection days 2 and 3 (reads of this peptide / all reads for the bait, averaged over … for the first, 0.00033 average fractional NGS count over selection days 2 and 3 (reads of this peptide / all reads for the bait, averaged over … for the second.

Compared with chain 1 K10E, chain 1 K10F is lower in screen value: 0.00277 average fractional NGS count over selection days 2 and 3 (reads of this peptide / all reads for the bait, averaged over … for the first, 0.000223 average fractional NGS count over selection days 2 and 3 (reads of this peptide / all reads for the bait, averaged over … for the second.

First: chain 1 K10P
Second: chain 1 L11G
The screen value of the first is lower: 0.000281 average fractional NGS count over selection days 2 and 3 (reads of this peptide / all reads for the bait, averaged over … for the first, 0.000473 average fractional NGS count over selection days 2 and 3 (reads of this peptide / all reads for the bait, averaged over … for the second.

Compared with chain 1 L11V, chain 1 L11H is lower in screen value: 0.00254 average fractional NGS count over selection days 2 and 3 (reads of this peptide / all reads for the bait, averaged over … for the first, 0.000165 average fractional NGS count over selection days 2 and 3 (reads of this peptide / all reads for the bait, averaged over … for the second.

Going from chain 1 L11M to chain 1 L15V, the screen value rises from 0.000677 average fractional NGS count over selection days 2 and 3 (reads of this peptide / all reads for the bait, averaged over … to 0.0032 average fractional NGS count over selection days 2 and 3 (reads of this peptide / all reads for the bait, averaged over ….

First: chain 1 L15H
Second: chain 1 L15Y
The screen value of the first is lower: 0.00102 average fractional NGS count over selection days 2 and 3 (reads of this peptide / all reads for the bait, averaged over … for the first, 0.00117 average fractional NGS count over selection days 2 and 3 (reads of this peptide / all reads for the bait, averaged over … for the second.

Going from chain 1 L15K to chain 1 L15N, the screen value rises from 0.000159 average fractional NGS count over selection days 2 and 3 (reads of this peptide / all reads for the bait, averaged over … to 0.000216 average fractional NGS count over selection days 2 and 3 (reads of this peptide / all reads for the bait, averaged over ….

First: chain 1 L15Q
Second: chain 1 L15W
The screen value of the first is higher: 0.00188 average fractional NGS count over selection days 2 and 3 (reads of this peptide / all reads for the bait, averaged over … for the first, 0.000732 average fractional NGS count over selection days 2 and 3 (reads of this peptide / all reads for the bait, averaged over … for the second.

Compared with chain 1 L15D, chain 1 L15F is higher in screen value: 0.000238 average fractional NGS count over selection days 2 and 3 (reads of this peptide / all reads for the bait, averaged over … for the first, 0.000576 average fractional NGS count over selection days 2 and 3 (reads of this peptide / all reads for the bait, averaged over … for the second.

First: chain 1 L4H
Second: chain 1 L4Y
The screen value of the first is lower: 0.000467 average fractional NGS count over selection days 2 and 3 (reads of this peptide / all reads for the bait, averaged over … for the first, 0.00693 average fractional NGS count over selection days 2 and 3 (reads of this peptide / all reads for the bait, averaged over … for the second.

First: chain 1 L4G
Second: chain 1 L4I
The screen value of the first is lower: 0.000192 average fractional NGS count over selection days 2 and 3 (reads of this peptide / all reads for the bait, averaged over … for the first, 0.00221 average fractional NGS count over selection days 2 and 3 (reads of this peptide / all reads for the bait, averaged over … for the second.

Going from chain 1 L4T to chain 1 L4V, the screen value rises from 0.00113 average fractional NGS count over selection days 2 and 3 (reads of this peptide / all reads for the bait, averaged over … to 0.0013 average fractional NGS count over selection days 2 and 3 (reads of this peptide / all reads for the bait, averaged over ….

Going from chain 1 L4P to chain 1 L4F, the screen value rises from 0.000281 average fractional NGS count over selection days 2 and 3 (reads of this peptide / all reads for the bait, averaged over … to 0.000915 average fractional NGS count over selection days 2 and 3 (reads of this peptide / all reads for the bait, averaged over ….

Going from chain 1 L4S to chain 1 L4A, the screen value falls from 0.00023 average fractional NGS count over selection days 2 and 3 (reads of this peptide / all reads for the bait, averaged over … to 0.000153 average fractional NGS count over selection days 2 and 3 (reads of this peptide / all reads for the bait, averaged over ….

Going from chain 1 L4Q to chain 1 T7V, the screen value rises from 0.000755 average fractional NGS count over selection days 2 and 3 (reads of this peptide / all reads for the bait, averaged over … to 0.000833 average fractional NGS count over selection days 2 and 3 (reads of this peptide / all reads for the bait, averaged over ….

Compared with chain 1 T7H, chain 1 T7Y is lower in screen value: 0.000516 average fractional NGS count over selection days 2 and 3 (reads of this peptide / all reads for the bait, averaged over … for the first, 0.000282 average fractional NGS count over selection days 2 and 3 (reads of this peptide / all reads for the bait, averaged over … for the second.

Going from chain 1 T7W to chain 1 S9N, the screen value rises from 0.000447 average fractional NGS count over selection days 2 and 3 (reads of this peptide / all reads for the bait, averaged over … to 0.00167 average fractional NGS count over selection days 2 and 3 (reads of this peptide / all reads for the bait, averaged over ….

Compared with chain 1 A2Y, chain 1 A2Q is lower in screen value: 0.00133 average fractional NGS count over selection days 2 and 3 (reads of this peptide / all reads for the bait, averaged over … for the first, 0.000351 average fractional NGS count over selection days 2 and 3 (reads of this peptide / all reads for the bait, averaged over … for the second.

Compared with chain 1 A2T, chain 1 A2E is lower in screen value: 0.00695 average fractional NGS count over selection days 2 and 3 (reads of this peptide / all reads for the bait, averaged over … for the first, 0.000377 average fractional NGS count over selection days 2 and 3 (reads of this peptide / all reads for the bait, averaged over … for the second.

First: chain 1 A2N
Second: chain 1 A2K
The screen value of the first is lower: 0.000208 average fractional NGS count over selection days 2 and 3 (reads of this peptide / all reads for the bait, averaged over … for the first, 0.000711 average fractional NGS count over selection days 2 and 3 (reads of this peptide / all reads for the bait, averaged over … for the second.

First: chain 1 A2G
Second: chain 1 A2S
The screen value of the first is higher: 0.00214 average fractional NGS count over selection days 2 and 3 (reads of this peptide / all reads for the bait, averaged over … for the first, 0.000833 average fractional NGS count over selection days 2 and 3 (reads of this peptide / all reads for the bait, averaged over … for the second.

First: chain 1 A2H
Second: chain 1 A2D
The screen value of the first is higher: 0.00143 average fractional NGS count over selection days 2 and 3 (reads of this peptide / all reads for the bait, averaged over … for the first, 0.0012 average fractional NGS count over selection days 2 and 3 (reads of this peptide / all reads for the bait, averaged over … for the second.

Going from chain 1 A2P to chain 1 A2I, the screen value falls from 0.000416 average fractional NGS count over selection days 2 and 3 (reads of this peptide / all reads for the bait, averaged over … to 0.000259 average fractional NGS count over selection days 2 and 3 (reads of this peptide / all reads for the bait, averaged over ….

First: chain 1 A2R
Second: chain 1 A2M
The screen value of the first is higher: 0.00121 average fractional NGS count over selection days 2 and 3 (reads of this peptide / all reads for the bait, averaged over … for the first, 0.000697 average fractional NGS count over selection days 2 and 3 (reads of this peptide / all reads for the bait, averaged over … for the second.

Going from chain 1 Y12W to chain 1 Y12F, the screen value falls from 0.000296 average fractional NGS count over selection days 2 and 3 (reads of this peptide / all reads for the bait, averaged over … to 0.00012 average fractional NGS count over selection days 2 and 3 (reads of this peptide / all reads for the bait, averaged over ….

chain 1 F6W was tested, and the screen value was 0.000583 average fractional NGS count over selection days 2 and 3 (reads of this peptide / all reads for the bait, averaged over ….
